For test [1], the target named is T1, 72 kDa heat shock protein (HSP72), recombinant human (human, UniProt P0DMV8 1-641). The experiment in a line: SPR. (In general: SPR reads the build-up and loss of mass on a sensor chip optically.)
Test [2] deals with T1, 72 kDa heat shock protein (HSP72), …. The experiment in a line: SPR. This is another data set of the same source.

Where two headings read alike, the source gives them in different places.

T1 sequence (P0DMV8 whole entry): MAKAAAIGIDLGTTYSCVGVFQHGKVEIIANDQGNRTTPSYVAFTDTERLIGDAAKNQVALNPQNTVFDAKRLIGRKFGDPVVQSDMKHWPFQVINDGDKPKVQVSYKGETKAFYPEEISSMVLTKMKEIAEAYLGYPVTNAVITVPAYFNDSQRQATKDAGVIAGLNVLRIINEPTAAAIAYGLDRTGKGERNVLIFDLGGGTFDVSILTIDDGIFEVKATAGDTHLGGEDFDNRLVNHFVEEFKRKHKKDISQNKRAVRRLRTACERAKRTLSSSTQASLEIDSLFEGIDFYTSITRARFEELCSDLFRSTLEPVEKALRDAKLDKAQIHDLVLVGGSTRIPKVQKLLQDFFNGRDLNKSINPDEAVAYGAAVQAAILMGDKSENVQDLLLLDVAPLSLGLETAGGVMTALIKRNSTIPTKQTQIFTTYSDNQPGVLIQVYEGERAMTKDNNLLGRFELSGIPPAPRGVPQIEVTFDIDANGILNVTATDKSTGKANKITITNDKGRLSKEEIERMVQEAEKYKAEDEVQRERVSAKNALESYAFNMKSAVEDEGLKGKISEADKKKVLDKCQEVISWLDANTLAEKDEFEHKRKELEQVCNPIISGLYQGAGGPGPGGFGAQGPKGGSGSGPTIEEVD

As usually defined, the Kd is the concentration at which binding is half-saturated. The kon is the rate constant with which the complex forms. Consider DTDTPIVYNDRNLLD [Peptide N, the extreme carboxyl terminus (15 amino acids) of the Edmonston MV N protein], for which, in test [1], the Kd came to 1000 nM and the kon was 357 M⁻¹ s⁻¹. Further, the dissociation constant Kd in test [2] stood at 4000 nM.

The values are drawn from publication PMC248471 (Biological Procedures Online, 2003).
